This test concerns the target empty A2-SABR pulsed with soluble MART1 peptide (…) (Homo sapiens; human) (UniProt P61769). The experiment in a line: cell-based or functional assay.

Substance F5 TCR displayed a fold decrease in antigen sensitivity (concentration of the peptide required for half-maximal signaling), SABR signaling against TCR signaling of 30 fold.

The values above are taken from US12221465.
